Measured values as given in article PMC9201380 (2022).

Biological target: SARS-CoV-2 S receptor-binding domain (residues 330-531), Avi-tagged and biotinylated (SARS-CoV-2, UniProt P0DTC2 330-531)
Test: BLI

B1: DL28 (monovalent nanobody) (VHH)
VHH: QVQLQESGGGLVQAGGSLRLSCAASGSDFSSSTMGWYRQAPGKQREFVAISSEGSTSYAGSVKGRFTISRDNAKNTVYLQMNSLEPEDTAVYYCNVVDRWYDYWGQGTQVTVSA
In the case of B1, the koff is reported as 0.000743 s⁻¹.
